# Laboratory results: patent CN112390879A (UNIV SHANGHAI TECHNOLOGY, dated 2021)
# Tests used:
# [1] = molecular target: 生物素化RBD (SARS-CoV-2, UniProt P0DTC2 319-541)
# [2] = molecular target: SARS-CoV-2 S蛋白 (野生型) (SARS-CoV-2, UniProt P0DTC2 14-1273); assay: cell-based or functional assay
# [3] = molecular target: T1, SARS-CoV-2 S蛋白的RBD蛋白 (SARS-CoV-2, UniProt P0DTC2 319-541); assay: ELISA, RBD coated at 2 μg/mL, 1F as human IgG1
# T1 construct: domain: RBD
# [4] = molecular target: T1, SARS-CoV-2 S蛋白的RBD蛋白; assay: SPR, Biacore T200, RBD immobilised on CM5 chip, antibody in solution, 1:1 model
binder,measurement,setting,value
"抗体1F (antibody, V domains shown) VH: EVQLVESGPGLVKPSETLSLTCTVSGGSISSSSYYWGWIRQPPGKGLEWIGSIYYRGSTYYNPSLKSRVTISVDTSKNQFSLKLSSVTAADTAVYYCARHVRSAYYYGSGSYRDEGNWFDPWGQGTLVTVSS VL: QSVLTQPPSVSGAPGQRVTISCTGTRSNIGAGHDVHWYQQLPGTAPKLLIYGNNNRPSGVPDRFSGAKSGTSASLAITGLQAEDEADYYCQSYDRTLTSYVFGTGTKVTVL",IC50,[1],0.213 µg/mL
same,"中和SARS-CoV-2活病毒 (Vero-E6细胞, RT-PCR) IC50",[2],0.018 µg/mL
same,"中和野生型SARS-CoV-2假病毒 (293T-ACE2细胞, 荧光素酶) IC50",[2],0.0464 µg/mL
same,EC50,[3],0.0016 µg/mL
same,Kd,[4],0.077 nM
